The supplement of paper PMC10567573

B1: MGC27345 (parent)
chain: KYMPHLCQDSSGEVSCQCQLHPPR
B2: TSN (parent)
chain: AFVVYLETETLVTREAVTEILGIE

Variants of: B1
Experiment: protein stability index of a GFP-peptide fusion (GPS, HEK-293T) (PSI 1-6); higher = more stable
Conditions: c terminus: a fixed tail appended
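Note: lentivirally expressed fusions sorted by FACS into six bins by GFP to DsRed ratio, PSI derived from sequencing read proportions per bin multiplied by bin number.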

Variant | protein stability index
D9C | 2.97
D9A | 2.73
D9K | 2.43
D9M | 2.15
D9N | 1.98
D9I | 1.51
D9E | 3.09
D9F | 2.47
D9G | 2.56
D9L | 2.18
D9P | 1.42
D9H | 2.38
C7E | 1.77
C7K | 1.9
C7L | 1.85
C7I | 1.79
C7Y | 1.63
C7N | 1.27
C7S | 1.47
C7M | 2.11
C7P | 1.77
C7W | 1.75
C7R | 3.06

Variant | protein stability index
C7Q | 2.1
C7T | 1.53
C7A | 1.47
C7F | 2.21
C7G | 3.13
C7H | 1.85
C7D | 2.11
Y2G | 2.87
Y2H | 2.51
Y2M | 2.52
Y2P | 1.79
Y2A | 1.97
Y2C | 2.44
Y2T | 2.3
Y2D | 2.4
Y2N | 3.13
Y2E | 1.66
Y2Q | 1.78
Y2F | 1.86
Y2V | 2.23
Y2R | 2.16
Y2S | 2.33
Y2W | 2.64

Variant | protein stability index
Y2I | 3.1
Q8G | 2.42
Q8T | 3.04
Q8E | 1.97
Q8A | 2.65
Q8M | 2.83
Q8P | 2.15
Q8V | 2.73
Q8R | 2.83
Q8C | 2.53
Q8D | 2.6
Q8L | 1.77
Q8H | 2.03
Q8N | 2.54
Q8F | 2.38
Q8I | 2.38
Q8W | 2.65
Q8Y | 1.7
M3R | 2.46
M3A | 2.24
M3S | 2.27
M3I | 2.01
M3W | 1.99

Variant | protein stability index
M3D | 2.34
M3P | 2.84
M3N | 2.55
M3T | 1.96
M3V | 2.32
M3G | 2.1
M3Q | 1.05
M3C | 2.94
M3Y | 2.22
M3E | 2.25
M3K | 1.96
M3F | 1.99
M3H | 2.28
M3L | 2.67
K1A | 1.82
K1M | 3.73
K1V | 2.43
K1L | 2.48
K1C | 3.03
K1Q | 2
K1E | 2.06
K1G | 2.25
K1F | 1.6

Variant | protein stability index
K1T | 1.9
K1Y | 1.92
K1P | 2.16
K1H | 2.13
K1I | 1.98
K1N | 1.73
K1D | 2.56
K1S | 2.65
K1R | 2.24
H5C | 2.92
H5R | 2.57
H5P | 2.27
H5Y | 1.98
H5Q | 2.6
H5S | 1.89
H5V | 2.22
H5N | 1.64
H5M | 2.15
H5G | 1.45
H5E | 2.3
H5W | 3.69
H5A | 1.8
H5F | 1.34

Variant | protein stability index
H5T | 2.21
H5D | 1.66
H5I | 1.49
L6K | 2.14
L6C | 2.39
L6F | 1.59
L6H | 2.1
L6A | 1.73
L6Y | 1.96
L6P | 1.57
L6N | 1.79
L6T | 2.34
L6M | 1.79
L6G | 2.66
L6Q | 2.47
L6E | 2.71
L6I | 2.23
L6D | 2.64
L6V | 2.65
L6R | 2.05
L6W | 1.53
L6S | 2.98
P4T | 1.98

Variant | protein stability index
P4C | 3.23
P4E | 1.79
P4I | 1.49
P4H | 1.69
P4F | 1.75
P4A | 2.26
P4V | 2.81
P4Q | 1.99
P4W | 1.67
P4D | 2.18
P4L | 1.7
P4K | 1.58
P4Y | 2.15
P4S | 1.71
P4N | 1.78
P4R | 1.9
P4M | 2.54
P4G | 1.62

Variants of: B2
Experiment: as above
Conditions: c terminus: a fixed tail appended

Variant | protein stability index
E24L | 3.3
E24D | 2.34
E24K | 3.34
E24R | 2.27
E24V | 2.23
E24F | 2.03
E24Q | 3.13
E24S | 2.53
E24G | 2.84
E24W | 1.53
E24I | 3.19
